Here are results for 2 molecules from patent CN114057881A (HANGZHOU XIANZHI BIOTECHNOLOGY CO LTD, dated 2022).

In this assay the target is T1, 牛血清白蛋白 (bovine, UniProt P02769 25-607).
T1 construct: Carrier protein control, without ketamine, in the ELISA screen; also called BSA
Kind of assay: ELISA, BSA coated at 1 μg/mL, purified antibody, HRP secondary antibody, OD450. On the technique in general: ELISA stands for enzyme-linked immunosorbent assay.

T1 sequence (P02769 25-607 limits assumed): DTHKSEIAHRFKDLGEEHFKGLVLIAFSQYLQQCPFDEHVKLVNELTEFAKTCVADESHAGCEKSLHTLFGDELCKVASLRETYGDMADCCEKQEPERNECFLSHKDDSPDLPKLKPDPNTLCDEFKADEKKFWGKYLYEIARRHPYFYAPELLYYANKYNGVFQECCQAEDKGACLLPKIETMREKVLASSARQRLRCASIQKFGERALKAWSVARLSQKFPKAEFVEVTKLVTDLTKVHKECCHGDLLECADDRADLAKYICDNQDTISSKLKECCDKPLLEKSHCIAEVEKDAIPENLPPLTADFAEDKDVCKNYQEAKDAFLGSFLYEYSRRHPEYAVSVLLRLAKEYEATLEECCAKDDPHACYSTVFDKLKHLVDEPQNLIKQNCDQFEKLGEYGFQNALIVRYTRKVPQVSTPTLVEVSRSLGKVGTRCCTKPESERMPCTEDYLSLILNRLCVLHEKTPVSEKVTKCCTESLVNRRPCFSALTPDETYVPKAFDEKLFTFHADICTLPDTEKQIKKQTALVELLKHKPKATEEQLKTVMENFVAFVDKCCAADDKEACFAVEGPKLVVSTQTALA

B1: 抗氯胺酮(KET)特异性抗体6B2 (antibody, V domains shown)
VH: EVQLQQSGAELLKPGASVKLSCTASGFNIKDTYIHWVKQRPEQGLEWIGRIDPANGHTYYDPQFQGKATLTADTSSNTAYLQLSSLTSEDSAIYYCARFGEDWGQGTLVTVSA
VL: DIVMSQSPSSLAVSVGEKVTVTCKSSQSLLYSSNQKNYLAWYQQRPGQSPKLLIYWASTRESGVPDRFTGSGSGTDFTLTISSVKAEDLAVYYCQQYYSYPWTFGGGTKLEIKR
notes: also called 6B2单抗
Regarding B1, the binding result was “no binding”.

B2: 抗氯胺酮(KET)特异性抗体4A1 (antibody, V domains shown)
VH: EVRLEESGGGLVQPGGSMKLSCVASGFTFSNYWMNWVRQSPEKGLEWVDEIKLKSNNYETHCVESVKGRFTISRDDSKSSVYLQMNNLRAEDTGIYYCARRGYGTYYAMDYWGQGTSVIVSS
VL: DVQITQSPSYLAASPGETITINCRASKSIRKYLAWYQEKPGKTNKLLIYSGSTLRSGTPSRFSGSGSGTDFTLTISSLEPEDFAMYYCQQHNEYPYTFGGGTKLEIKR
notes: also called 4A1单抗
Consider B2, for which the binding result is reported as “no binding”.
